According to article PMC11960969, “Mdga2 deficiency leads to an aberrant activation of BDNF/TrkB signaling that underlies autism-relevant synaptic and behavioral changes in mice” (PLOS Biology, 2025):

Assays:
[1] = tested on: TrkB (TrkB-Flag); test: Co-IP of MDGA2 and its truncations with TrkB-Flag in HEK293T cells; format: binding, human; settings: HEK293T cells co-transfected with TrkB-Flag and GFP-tagged MDGA2 constructs
Protocol: (§1) Fig 3 MDGA2 interacts with TrkB and suppresses TrkB activity. (A) Primary hippocampal neurons derived from Mdga2^ +/− (Het) mice and their wild-type (WT) littermates at DIV 7 were treated with different doses of BDNF for 30 min. Equal amounts of protein lysates were subjected to immunoprecipitation (IP) with an anti-TrkB antibody, followed by immunoblotting with an anti-phosphotyrosine (pTyr) antibody or the anti-TrkB antibody. The pTyr levels were quantified by densitometry, normalized to total TrkB levels, and then compared to those of WT controls. n = 3 per group. (B) WT mouse brain lysates were subjected to IP with an anti-MDGA2 antibody and a control IgG, and immunoblotted (IB) for the components indicated. mBDNF, mature BDNF; ImBDNF, immature BDNF. (C) Hippocampal neurons from WT mice at DIV 7 were immunostained with antibodies against MDGA2 (red) and TrkB (green), and then counter-stained with DAPI (blue). Images were acquired by a confocal microscope. Scale bar: 10 μm. (D) Surface plasmon resonance (SPR) analysis of the binding between recombinant MDGA2 protein and recombinant TrkB protein. TrkB was immobilized on a Biacore CM5 chip and tested for its binding with MDGA2 at the concentrations indicated. (E) Computer simulation of the binding mode of TrkB and MDGA2. The predicted binding domain of TrkB (the d5 domain) is highlighted by a red square and labeled in brown. The predicted binding domain of MDGA2 (the MAM domain) is highlighted by a red square and labeled in yellow. […] Immunoprecipitated TrkB levels were quantified by densitometry, normalized to input levels, and compared to respective controls (set to one arbitrary units). n = 3 per group. […] Levels of phosphorylated proteins were quantified by densitometry, normalized to respective total protein levels and compared to controls (set to one arbitrary units). n = 6 per group. […] P-values were determined by two-tailed unpaired Student t-test in (A) and one-way ANOVA with Tukey’s multiple comparisons test in (H, I, J). *p < 0.05, **p < 0.01, ***p < 0.001, ns: not significant. […]

[2] = tested on: BDNF-TrkB interaction; test: BDNF-TrkB Co-IP (anti-BDNF or anti-TrkB) in primary neurons / brain of Het, KO, WT and in WT neurons transfected with MDGA2 or ΔMAM; format: cell-based, mouse; settings: IP anti-BDNF, Fig 3I
Protocol: as §1, with “BDNF.” for “BDNF. (C) Hippocampal neurons from WT mice at DIV 7 were immunostained with antibodies against MDGA2 (red) and TrkB (green), and then counter-stained with DAPI (blue). Images were acquired by a confocal microscope. Scale bar: 10 μm. (D) Surface plasmon resonance (SPR) analysis of the binding between recombinant MDGA2 protein and recombinant TrkB protein. TrkB was immobilized on a Biacore CM5 chip and tested for its binding with MDGA2 at the concentrations indicated. (E) Computer simulation of the binding mode of TrkB and MDGA2. The predicted binding domain of TrkB (the d5 domain) is highlighted by a red square and labeled in brown. The predicted binding domain of MDGA2 (the MAM domain) is highlighted by a red square and labeled in yellow.”

[3] = tested on: TrkB signaling (pTrkB, pAkt, pmTOR); test: Immunoblotting of TrkB/Akt/mTOR phosphorylation in primary neurons transfected with MDGA2, ΔMAM or V930I; format: cell-based, mouse; settings: for pAkt level normalized to total protein / pTrkB level normalized to total protein / pmTOR level normalized to total protein: KO neurons transfected, WT/Ctrl set to one
Protocol: Fig 3 MDGA2 interacts with TrkB and suppresses TrkB activity. (A) Primary hippocampal neurons derived from Mdga2^ +/− (Het) mice and their wild-type (WT) littermates at DIV 7 were treated with different doses of BDNF for 30 min. Equal amounts of protein lysates were subjected to immunoprecipitation (IP) with an anti-TrkB antibody, followed by immunoblotting with an anti-phosphotyrosine (pTyr) antibody or the anti-TrkB antibody. The pTyr levels were quantified by densitometry, normalized to total TrkB levels, and then compared to those of WT controls. n = 3 per group. (B) WT mouse brain lysates were subjected to IP with an anti-MDGA2 antibody and a control IgG, and immunoblotted (IB) for the components indicated. mBDNF, mature BDNF; ImBDNF, immature BDNF. (C) Hippocampal neurons from WT mice at DIV 7 were immunostained with antibodies against MDGA2 (red) and TrkB (green), and then counter-stained with DAPI (blue). Images were acquired by a confocal microscope. Scale bar: 10 μm. (D) Surface plasmon resonance (SPR) analysis of the binding between recombinant MDGA2 protein and recombinant TrkB protein. TrkB was immobilized on a Biacore CM5 chip and tested for its binding with MDGA2 at the concentrations indicated. (E) Computer simulation of the binding mode of TrkB and MDGA2. The predicted binding domain of TrkB (the d5 domain) is highlighted by a red square and labeled in brown. The predicted binding domain of MDGA2 (the MAM domain) is highlighted by a red square and labeled in yellow. (F) HEK293T cells were co-transfected with TrkB-Flag and GFP-tagged full-length MDGA2 (MDGA2-GFP) or an MDGA2 deletion fragment lacking the entire MAM domain (ΔMAM-GFP). Cell lysates were subjected to IP with control IgG and antibodies against Flag or GFP, and immunoblotted for the components indicated. […] The scheme of MDGA2-ΔMAM is also shown. (G) HeLa cells were co-transfected with TrkB that is tagged with the N-terminal Venus fragment (TrkB-VN) and full-length MDGA2 or MDGA2-ΔMAM that are tagged with the C-terminal Venus fragment (MDGA2-VC or ΔMAM-VC) for 24 h. After immunostaining with antibodies against MDGA2/MDGA2-ΔMAM (pink) and TrkB (red), cells were observed by confocal microscopy. Venus signal (green) indicates the interaction between MDGA2 and TrkB. Schematic diagrams depicting the BiFC assay are also shown. Scale bars: 10 μm. (H, I) Equal amounts of protein lysates from primary neurons derived from Het, KO, and their WT littermate mice (H), and from WT primary neurons transfected with GFP control, MDGA2-GFP or ΔMAM-GFP (I) were subjected to IP with IgG and an anti-BDNF antibody, and then immunoblotted for the components indicated. Immunoprecipitated TrkB levels were quantified by densitometry, normalized to input levels, and compared to respective controls (set to one arbitrary units). n = 3 per group. (J) Neurons derived from KO mice were transfected with GFP control (Ctrl), MDGA2-GFP, or MDGA2-ΔMAM-GFP, and neurons derived from their WT littermates were transfected with GFP control (Ctrl). Equal amounts of protein lysates were subjected to immunoblotting for the proteins indicated. Levels of phosphorylated proteins were quantified by densitometry, normalized to respective total protein levels and compared to controls (set to one arbitrary units). n = 6 per group. Data represent mean ± SEM. P-values were determined by two-tailed unpaired Student t-test in (A) and one-way ANOVA with Tukey’s multiple comparisons test in (H, I, J). *p < 0.05, **p < 0.01, ***p < 0.001, ns: not significant. The data underlying this figure can be found in S1 Data, specifically in the sheet labeled “Figure 3”.
Fig 7 The autism spectrum disorder (ASD)-associated MDGA2 V930I mutation impairs the MDGA2-TrkB interaction and MDGA2’s inhibitory effect on the tyrosine kinase B (TrkB) signaling. (A) Schematic depiction of the WT human MDGA2 and its V930I mutation constructs that are tagged with GFP. […]

[4] = tested on: TrkB (TrkB-VN); test: BiFC assay in HeLa cells (TrkB-VN with MDGA2-VC or ΔMAM-VC); format: cell-based, human; settings: 24 h, Venus fluorescence
Protocol: as §1, with “BDNF.” for “BDNF. (C) Hippocampal neurons from WT mice at DIV 7 were immunostained with antibodies against MDGA2 (red) and TrkB (green), and then counter-stained with DAPI (blue). Images were acquired by a confocal microscope. Scale bar: 10 μm. (D) Surface plasmon resonance (SPR) analysis of the binding between recombinant MDGA2 protein and recombinant TrkB protein. TrkB was immobilized on a Biacore CM5 chip and tested for its binding with MDGA2 at the concentrations indicated. (E) Computer simulation of the binding mode of TrkB and MDGA2. The predicted binding domain of TrkB (the d5 domain) is highlighted by a red square and labeled in brown. The predicted binding domain of MDGA2 (the MAM domain) is highlighted by a red square and labeled in yellow.”

B1: MDGA2-ΔMAM: truncated form of MDGA2 lacking its MAM domain (protein)
chain: PPTVRIVHSGLACNIEEERYSERVYTIREGETLELTCLVTGHPRPQIRWTKTAGSASDRFQDSSVFNETLRITNIQRHQGGRYYCKAENGLGSPAIKSIRVDVYYLDDPVVTVHQSIGEAKEQFYYERTVFLRCVANSNPPVRYSWRRGQEVLLQGSDKGVEIYEPFFTQGETKILKLKNLRPQDYANYSCIASVRNVCNIPDKMVSFRLSNKTASPSIKLLVDDPIVVNPGEAITLVCVTTGGEPAPSLTWVRSFGTLPEKTVLNGGTLTIPAITSDDAGTYSCIANNNVGNPAKKSTNIIVRALKKGRFWITPDPYHKDDNIQIGREVKISCQVEAVPSEELTFSWFKNGRPLRSSERMVITQTDPDVSPGTTNLDIIDLKFTDFGTYTCVASLKGGGISDISIDVNISSSTVPPNLTVPQEKSPLVTREGDTIELQCQVTGKPKPIILWSRADKEVAMPDGSMQMESYDGTLRIVNVSREMSGMYRCQTSQYNGFNVKPREALVQLIVQYPPAVEPAFLEIRQGQDRSVTMSCRVLRAYPIRVLTYEWRLGNKLLRTGQFDSQEYTEYAVKSLSNENYGVYNCSIINEAGAGRCSFLVTGKAYAPEFYYDTYNPVWQNRHRVYSYSLQWTQMNPDAVDRIVAYRLGIRQAGQQRWWEQEIKINGNIQKGELITYNLTELIKPEAYEVRLTPLTKFGEGDSTIRVIKYSAPVNPHLREQDLATKNSVD
modifications: left off: GFP, end not stated, kept
notes: truncated form of MDGA2 lacking its MAM domain
interaction with TrkB (Co-IP) [1]: abolished the MDGA2-TrkB interaction
interaction between BDNF and TrkB upon overexpression [2]: not MDGA2-ΔMAM
pAkt level normalized to total protein ([3]; replicate 1): 2.92 arbitrary units
pTrkB level normalized to total protein ([3]; replicate 1): 2.14 arbitrary units
pmTOR level normalized to total protein ([3]; replicate 1): 3.01 arbitrary units
pAkt level normalized to total protein ([3]; replicate 2): 2.51 arbitrary units
pTrkB level normalized to total protein ([3]; replicate 2): 2.17 arbitrary units
pmTOR level normalized to total protein ([3]; replicate 2): 2.5 arbitrary units
pAkt level normalized to total protein ([3]; replicate 3): 2.41 arbitrary units
pTrkB level normalized to total protein ([3]; replicate 3): 2.23 arbitrary units
pmTOR level normalized to total protein ([3]; replicate 3): 2.06 arbitrary units
pAkt level normalized to total protein ([3]; replicate 4): 2.21 arbitrary units
pTrkB level normalized to total protein ([3]; replicate 4): 2.41 arbitrary units
pmTOR level normalized to total protein ([3]; replicate 4): 1.59 arbitrary units
pAkt level normalized to total protein ([3]; replicate 5): 1.76 arbitrary units
pTrkB level normalized to total protein ([3]; replicate 5): 2.01 arbitrary units
pmTOR level normalized to total protein ([3]; replicate 5): 1.49 arbitrary units
pAkt level normalized to total protein ([3]; replicate 6): 1.68 arbitrary units
pTrkB level normalized to total protein ([3]; replicate 6): 1.69 arbitrary units
pmTOR level normalized to total protein ([3]; replicate 6): 1.31 arbitrary units
overactivation of TrkB signaling (pTrkB, pAkt, pmTOR) upon expression ([3]; Mdga2-/- neurons, Fig 3J, n = 6): not MDGA2-ΔMAM
interaction with TrkB (BiFC) [4]: not MDGA2-ΔMAM
